Consider four substances from patent publication US8492329B2, “Bioactive peptides and methods of using same” (Compugen Ltd., priority 2007, dated 2013).

Format in all cases: cell-based
Set-up in all cases: expressed in transfected cells; host or cells: CHO-K1 (transient)

The target of test [1] is T1, LGR7 (RXFP1) (Homo sapiens, UniProt Q9HBX9).
T1 sequence (Q9HBX9 1-757): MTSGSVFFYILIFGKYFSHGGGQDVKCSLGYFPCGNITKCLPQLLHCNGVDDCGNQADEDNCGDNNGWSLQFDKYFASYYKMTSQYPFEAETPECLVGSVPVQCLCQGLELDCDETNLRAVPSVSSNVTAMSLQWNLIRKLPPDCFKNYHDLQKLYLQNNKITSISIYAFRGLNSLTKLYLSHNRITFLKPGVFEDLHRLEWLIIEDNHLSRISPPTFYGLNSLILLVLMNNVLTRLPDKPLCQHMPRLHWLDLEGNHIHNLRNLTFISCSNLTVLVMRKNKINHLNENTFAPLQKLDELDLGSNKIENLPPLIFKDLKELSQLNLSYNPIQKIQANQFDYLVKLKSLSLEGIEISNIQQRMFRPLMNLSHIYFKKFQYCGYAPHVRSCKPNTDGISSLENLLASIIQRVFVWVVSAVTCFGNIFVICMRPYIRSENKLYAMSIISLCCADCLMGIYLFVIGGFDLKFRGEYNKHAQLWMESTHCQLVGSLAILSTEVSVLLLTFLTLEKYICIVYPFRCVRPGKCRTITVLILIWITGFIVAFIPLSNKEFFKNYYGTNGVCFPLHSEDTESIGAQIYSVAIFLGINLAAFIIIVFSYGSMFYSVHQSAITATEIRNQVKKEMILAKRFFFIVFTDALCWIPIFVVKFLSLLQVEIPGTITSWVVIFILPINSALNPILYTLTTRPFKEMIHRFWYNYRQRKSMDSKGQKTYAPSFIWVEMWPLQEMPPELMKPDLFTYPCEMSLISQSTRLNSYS
In words: cAMP accumulation (Hit Hunter cAMP kit) in CHO-K1 cells transiently transfected with LGR7. The conditions noted are these: for cAMP inhibition (Gi) effect: 1 uM, LGR7 CHO-K1 cells pre-treated with 10 uM Forskolin, FIG. 1; for cAMP dose response with Forskolin / Gs (cAMP increase) dose response without Forskolin: LGR7; for cAMP dose response with Forskolin: 10 uM Forskolin, 1 nM to 10 uM, FIG. 4A; for Gs (cAMP increase) dose response without Forskolin: low concentrations 3-100 nM, FIG. 4B. The protocol:
(§1) The ability of Peptides to affect cAMP concentration was examined in CHO-K1 cells transiently transfected with LGR7 (RXFP1) or LGR8 (RXFP2). The experiment measured cAMP concentration in response to the addition of the peptides.
(§2) LGR7 (RXFP1) or LGR8 (RXFP2) were transiently transfected into CHO-K1 cells as follows: Cells (12 million) were plated into T75 flasks on the day preceding transfection. Cells were transfected with a GPCR DNA and Gα16 using a lipid technique according to the manufacturer's recommendation. Cells were transfected for 5 hours, then re-plated into 96-well dishes (60,000 cells per well) and grown overnight. Transfected cells were plated into 24 wells of a 96-well plate. Cells were pre-treated with 0.5 mM IBMX (stimulation buffer) for 10 min at 37° C., then stimulated with either a positive control (Relaxin 2) or a candidate peptide (for Gs functional examination), followed by stimulation or a preincubation with 10 μM forskolin (for Gi functional examination). Following a 20 minutes stimulation by incubation with 1 μM of either positive control or the tested peptides, either with or without forskolin, intracellular cAMP was assayed using the Hit Hunter cAMP kit (DiscoveRx Corporation) according to the manufacturer's recommended protocol. Data was converted to nmol of cAMP by running a standard cAMP curve.
(§3) Relaxin was used as a positive control. cAMP level was elevated by pre-treatment with forskolin.
(§4) The transfected CHO-K1 cells were treated with 10 uM of Forskolin (Applied cell sciences (ACS)) for 10 minutes and then challenged with 1 uM of H2 Relaxin (ACS) (as a positive control), 1 uM of Peptide P59C13V (P59) (SEQ ID NO: 6), and Peptide P74C13V (P74) (SEQ ID NO: 10).
CHO-K1 cells transiently transfected with LGR7 (RXFP1) were treated with 10 uM of Forskolin for 10 minutes and then challenged with either H2 Relaxin (as a positive control), P59C13V (P59) (SEQ ID NO: 6) or P74C13V (P74) (SEQ ID NO: 10) at increasing concentrations, from 1 nm to 10 uM (FIG. 4A) and from 3 nM to 100 nM (FIG. 4B). cAMP concentrations were determined at each point, as described above with (FIG. 4A) or without (FIG. 4B) the presence of Forskolin.

Test [2] addresses LGR8 (RXFP2) (Homo sapiens, UniProt Q8WXD0). Kind of test: cAMP accumulation (Hit Hunter cAMP kit) in CHO-K1 cells transiently transfected with LGR8. Particulars: for cAMP inhibition (Gi) effect: 1 uM, LGR8 CHO-K1 cells pre-treated with 10 uM Forskolin, FIG. 1; for change in cAMP, dose response, higher concentrations: concentrations higher than 100 nM (up to 10 uM); for change in cAMP, dose response, higher concentrations / change in cAMP, dose response, lower concentrations: 20 uM Forskolin, FIG. 2; for change in cAMP, dose response, lower concentrations: concentrations lower than 100 nM. The protocol: as §1, §2, §3, §4
A dose response effect of P59C13V (P59) and P74C13V (P74) on CHO-K1 cells transiently transfected with LGR8 (RXFP2) was further examined (Method as above). CHO-K1 cells transiently transfected with LGR8 (RXFP2) were treated with 20 uM of Forskolin for 10 minutes and then challenged with either INSL3 (as a positive control), P59C13V (SEQ ID NO: 6) or P74C13V (P74) (SEQ ID NO: 10) at increasing concentrations from 1 nM to 10 uM.

Test [3] deals with T1, LGR7 (RXFP1). In words: pCRE-β-gal reporter assay in Forskolin-treated CHO-K1 cells transiently transfected with LGR7. Particulars: 5 uM Forskolin, FIG. 7A-B. The protocol:
The ability of P74C13V (P74) (SEQ ID NO: 10) and P59C13V (P59) and P59C13V-Amide (P59-Amide) (SEQ ID NO: 6 and 5 respectively) to activate LGR7 (RXFP1) and LGR8 (RXFP2) was further tested by testing the ability of these peptides to influence cAMP activity induced by 5 μM Forskolin in CHO-K1 cells transiently transfected with LGR7/pCRE-β-gal or LGR8/pCRE-β-gal as compared to H2 relaxin and INSL3 respectively.
LGR7 transfected CHO-K1 cells were treated with 5 uM of Forskolin to stimulate cAMP. The cells were then challenged with increasing doses of H2 Relaxin (as positive control), P74C13V (P74) (SEQ ID NO: 10), P59C13V with (P59-Amide) and without (P59) amide and P59S-Amide (P59S) (SEQ ID NO: 5, 6 and 1, respectively). […] The results are presented as a percentage of Forskolin activity at increasing concentrations of each peptide (represented in log [M]). The baseline for the experiment was the activity of Forskolin alone (100%). Each point represents three unrelated repeats for each experiment together with their standard error bars.

No end group written: not given here.

Chain of LGR8 (RXFP2) (Q8WXD0 whole entry): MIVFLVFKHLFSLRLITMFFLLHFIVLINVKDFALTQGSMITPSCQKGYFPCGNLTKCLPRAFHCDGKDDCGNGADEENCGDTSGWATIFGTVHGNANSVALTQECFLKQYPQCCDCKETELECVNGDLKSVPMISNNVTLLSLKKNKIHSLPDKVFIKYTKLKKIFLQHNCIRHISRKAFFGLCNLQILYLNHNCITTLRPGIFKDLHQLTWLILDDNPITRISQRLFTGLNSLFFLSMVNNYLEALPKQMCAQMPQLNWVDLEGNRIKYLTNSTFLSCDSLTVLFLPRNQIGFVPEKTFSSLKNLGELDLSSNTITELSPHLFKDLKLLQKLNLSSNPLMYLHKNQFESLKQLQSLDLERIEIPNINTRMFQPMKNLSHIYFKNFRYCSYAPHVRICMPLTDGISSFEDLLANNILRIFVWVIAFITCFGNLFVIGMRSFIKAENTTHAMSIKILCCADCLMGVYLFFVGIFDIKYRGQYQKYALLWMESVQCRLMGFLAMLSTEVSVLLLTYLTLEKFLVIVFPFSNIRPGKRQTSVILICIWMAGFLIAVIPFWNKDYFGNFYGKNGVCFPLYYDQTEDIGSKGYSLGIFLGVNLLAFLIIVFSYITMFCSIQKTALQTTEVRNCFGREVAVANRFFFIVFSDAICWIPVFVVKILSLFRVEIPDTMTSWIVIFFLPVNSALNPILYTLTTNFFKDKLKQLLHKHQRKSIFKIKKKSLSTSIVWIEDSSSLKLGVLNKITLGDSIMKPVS

As to “GQKGQVGPPGAAVRRAYAAFSV [Peptide P59C13V]”, in test [1], the “cAMP inhibition (Gi) effect” value was “clear cAMP inhibition (Gi) effect”, the “cAMP dose response with Forskolin” value was “bell-shaped curve” and the “Gs (cAMP increase) dose response without Forskolin” value is reported as “dose dependent increase in cAMP”. Besides, in test [2], the “cAMP inhibition (Gi) effect” value is recorded as “clear cAMP inhibition (Gi) effect”; the “change in cAMP, dose response, higher concentrations” value is recorded as “slight increase (Gs effect)”; the “change in cAMP, dose response, lower concentrations” value is “slight decrease in cAMP”. Also, the “CRE activation pattern relative to Forskolin” value in test [3] is on record as “dual activation pattern effect”.
As for “GQKGQVGPPGAAVRRAYAAFSV-Amide (GQKGQVGPPGAAVRRAYAAFSV-NH2) [P59C13V-Amide]”, in test [3], the “CRE activation pattern relative to Forskolin” value is recorded as “slight activation pattern”.
Consider “GQKGQVGPPGAAVRRAYAAFSVGRRAYAAFSV-OH [Peptide P74C13V]”, for which, in test [1], the “cAMP inhibition (Gi) effect” value was “clear cAMP inhibition (Gi) effect” and the “cAMP dose response with Forskolin” value is on record as “no significant effect”. Besides, in test [2], the “cAMP inhibition (Gi) effect” value is given as “clear cAMP inhibition (Gi) effect”; the “change in cAMP, dose response, higher concentrations” value is on record as “no effect”; the “change in cAMP, dose response, lower concentrations” value is “slight increase in cAMP”. In addition, in test [3], the “CRE activation pattern relative to Forskolin” value is reported as “bell-shaped activation pattern”.
With “H2 Relaxin: H2 Relaxin (ACS), positive control, known ligand of LGR7 (RXFP1) [reference compound]”, in test [1], the “cAMP inhibition (Gi) effect” value is on record as “affected only the LGR7 (RXFP1) receptor”, the “cAMP dose response with Forskolin” value was “dose dependent decrease (Gi) effect” and the “Gs (cAMP increase) dose response without Forskolin” value is “dose dependent increase in cAMP”. In test [2], the “cAMP inhibition (Gi) effect” value is given as “affected only the LGR7 (RXFP1) receptor”. For the same substance, in test [3], the “CRE activation pattern relative to Forskolin” value is “increased activation at higher concentrations”.
